# Assay results published in patent publication US8414660B2, “Haloferax volcanii laccase and variants and fragments thereof” (University of Florida Research Foundation, Inc., priority 2009, dated 2013).
# Where “and” joins values, the source holds several entries; their conditions need not be identical. Identical values can stand only once.
# B1: LccA: Haloferax volcanii laccase of the multicopper oxidase family, SEQ ID NO: 2, secreted glycoprotein purified from culture broth of strain US02 (protein, listed as Haloferax volcanii)
# chain: MTDWSRRRFLQTGAALGIAGTLPQTTTEVSAASPTLEKFVQPLPIPSVREPDGQRDGADAYEIAVTEFTQQLHPDLPETTVWGFDGSYPGPTIEADAGSPVHVRFDNSGLPSEHLFPVDDRLGGTTAENHPGYDGPVPEVRTVTHFHGLELDPANDGQSDMWTSPGGVEGPRFDSAWQELPMEQGRTTSTYHDHTLGITRLNAYAGLLGLYSITTDAERELGLPSGDYDIPLLLQDKEFNDDGSLHYPEEFVSAFLGDTAVVNGAVWPYVEVEPRRYRFRILNGANHRSFDLQLESESGSGVPTMYQFAPGHGFLESVVPIGPNGDLDSLLLTPFERGELVVDFSDHAGETLTLANGADMGPELTDLVEFRVSDPSTPPEDASADPTSLSLPTPASYDESDARVTREMTLGTEVRNGLITHTLNGHVFGDEDAPVYPQLGATEIWELQNESGGRHPIHLHLVTFRVIGRGPDGTQPPDPNELGPKDTVRVDPGERVRILVTFEGYTGQFPWHCHMLEHEDNKMMIPFVVENPVADYANEENVVDATGLTDAVGDWRNETLETEVLLEVIDQWRSGDEVA
# modifications: glycosylated
# Legend:
# [1] = Delignification of steam exploded sugarcane bagasse, total phenol by Folin-Ciocalteau
# Description: Prior to enzymatic treatment, sugarcane bagasse was treated with 1% (v/v) phosphoric acid and steam exploded in a shotgun reactor at 190° C. for 10 min. The resultant bagasse was adjusted to pH 8.4 with 5M NaOH.
# Stream exploded bagasse was delignified using the laccase, LccA, from H. volcanii US02. LccA was prepared for the delignification reaction by concentrating H. volcanii US02 culture supernatant 5-fold with ethanol precipitation and dialyzing the concentrate against 25 mM Tris buffer pH 8.4 supplemented with 200 mM NaCl (T buffer) with regenerated cellulose dialysis tubing (3500 Da molecular weight cut off; Thermo Scientific SnakeSkin Pleated Dialysis Tubing).
# Bagasse samples were treated with LccA in a rotary shaker at 150 rpm with similar doses of heat killed LccA enzyme (HKE) as a control. Periodically clear supernatant obtained by centrifugation of small fraction of hydrolysate was used for total phenol estimation by Folin-Ciocalteau method (Singleton and Rossi, 1965). Optimal conditions were determined to be treatment with 3 Uml^1 LccA at 37° C. in T buffer at pH 8.4 for 3-6 h.
# [2] = Thermostability of LccA, residual SGZ oxidizing activity after pre-incubation; assay type: physicochemical
# Description: (§1) FIG. 6D-Thermostability of LccA.
# LccA was fully active after 1 h at 55° C. and 5 h at 50° C., with a half-live of inactivation at 50° C. of 31.5 h (FIG. 6D). […] (Fernandes et al., 2007). Likewise, the recently studied recombinant RL 5 laccase from rumen metagenome has maximal activity at 60° C. and is fully stable at this temperature for 200 min (Beloqui et al., 2006). […] (Martins et al., 2002).
# [3] = Effect of mixed organo-solvents on LccA stability, residual SGZ oxidizing activity; assay type: physicochemical; conditions: 185 mM NaCl
# Description: as §1
# Commonly used water miscible organo-solvents (i.e., methanol, ethanol, dimethyl sulfoxide or DMSO and dimethylformamide or DMF) were examined for their compatibility with LccA stability and activity. […] LccA was relatively stable in all solvents examined, retaining nearly 75% of its activity after 24 h incubation in methanol or ethanol and over 50% of its activity after incubation in DMSO or DMF. The influence of water-miscible cosolvents on enzyme activity and stability has been examined for several fungal laccases (Rodakiewicz-Nowak et al., 1999; Robles et al., 2002; Milstein et al., 1993; Luterek et al., 1998; Cantarella et al., 2003). These prior studies coupled with the current findings reveal a wide-variety of laccases, including LccA, are stable and/or can support catalysis and conversion of phenolic substrates in water-organic mixed solvents. Since most of the substrates and mediators of laccases are insoluble or poorly soluble in water and the degree of polymerization of phenoxyl radicals is higher in aqueous media (Milstein et al., 1993), solvent stability is an important feature to consider in optimizing this group of enzymes.
# [4] = Salt tolerance of LccA, residual SGZ oxidizing activity after pre-incubation in NaCl; assay type: physicochemical; conditions: 100 mM to at least 1.4 M NaCl, FIG. 6E
# [5] = Laccase activity assay, oxidation of DMP with copper sulfate; assay type: biochemical; conditions: US02-purified LccA, standard conditions, CuSO4 added
# [6] = Oxidation of ferrous ammonium sulfate; assay type: biochemical; conditions: presence or absence of copper supplementation
# Oxidation of guaiacol = assay type: biochemical; conditions: presence or absence of copper supplementation
# [7] = Laccase activity assay, oxidation of ABTS; assay type: biochemical
# Text: as §1
# Oxidation of bilirubin = assay type: biochemical; conditions: US02-purified LccA
# [8] = Laccase activity assay, oxidation of SGZ (syringaldazine); conditions: for Km: read-out: Km, SGZ
# Description: LccA (51 μg·ml^−1) activity was assayed at different temperatures (22° to 70° C.) in T buffer with 185 mM NaCl using SGZ (1 mM) as the substrate. […] LccA activity was assayed with SGZ (●) from pH 6 to 11 and with ABTS (◯) from pH 3 to 8 at 45° C. using following buffers: 100 mM sodium acetate for pH 3 to 6, 25 mM Tris-HCl for pH 7 to 10, and 25 mM glycine-NaOH for pH 11. Activity is expressed as percent relative to oxidation of ABTS at pH 6. […] Purified enzyme (50.6 μg·ml^−1) was pre-incubated in T buffer supplemented with 185 mM NaCl at temperatures from 37° to 70° C. for up to 60 h, as indicated. […] Activity is presented as percent relative to incubation on ice (37° C. (●), 45° C. (▪), 50° C. (▴), 55° C. (♦), 60° C. (◯), 65° C. (□) and 70° C. (Δ)); FIG. 6E-Salt tolerance of LccA protein. Purified enzyme (16.5 μg·ml^−1) was pre-incubated for 30 min in T buffer at pH 8.4 supplemented with different concentrations of NaCl (0 to 1.4 M) as indicated. Samples were diluted to a final concentration 4.12 μg·ml^−1 protein and 185 mM NaCl in T buffer and assayed for SGZ oxidizing activity under standard conditions. Residual activity was calculated as percent relative to incubation at 185 mM NaCl. […] Enzyme (7.5 μg·ml^−1) was incubated in T buffer with 185 mM NaCl in the presence and absence of 25% (v/v) solvent (DMSO, DMF, ethanol and methanol) at room temperature for 90 min (white bar), 3 h (grey bar) and 24 h (black bar). […] Activity is calculated as percent relative to incubation without solvent.
# Enzyme activity was determined by change in absorbance, in triplicate, by UV/Visible-spectroscopy using a BioTek Synergy HT multi-detection microplate reader with a 96-well plate. Oxidation of substrate was monitored by absorbance increase (ABTS at 420 nm with ε=36,000 M^−1 cm^−1; SGZ at 526 nm with ε=65,000 M^−1 cm^−1; DMP at 468 nm with ε=49,000 M^−1 cm^−1; guaiacol at 436 nm with ε=26,600 M^−1 cm^−1; ferrous ammonium sulfate at 315 nm with ε=2,200 M^−1 cm^−1) or decrease (bilirubin at 440 nm with ε=56,300 M^−1 cm^−1). Standard assay conditions were 185 mM NaCl at 45° C. with the following buffers and substrate concentrations: 100 mM sodium acetate buffer at pH 6.0 for ABTS (at 5 mM), DMP (at 2 mM) and guaiacol (at 5 mM); 25 mM Tris-HCl buffer at pH 8.4 for SGZ (at 1 mM); and 200 mM Tris-HCl buffer at pH 8.4 for bilirubin (0.45 mM). Copper sulfate (1 mM) was included for assay of DMP oxidation. Oxidation of ferrous ammonium sulphate (1 mM) was monitored at 315 nm (ε=2,200 M^−1 cm^−1) with and without salt (185 mM NaCl) in 100 mM MES (morpholineethanesulfonic acid) buffer at pH 5 as well as 25 mM Tris-HCl buffer at pH 7.0 and 8.4. One unit of enzyme activity is defined as the amount of enzyme that oxidizes 1 μmol of substrate per min at standard conditions. […] Kinetic parameters (Km, Vmax, and kcat) were determined using the Michaelis-Menten equation. […] All assays and protein purifications were performed at least in triplicate.
# To further evaluate the catalytic properties of LccA, the temperature, pH and salt optima of the purified enzyme were determined using SGZ and/or ABTS as substrates.
# [9] = LccA from culture broth of Hfx. volcanii BS01
# [10] = LccA from culture broth of Hfx. volcanii US02
molecule,measurement,setting,value
B1,Phenol content after treatment,"[1]; 3 h of treatment, from 1473±10 before",1160±26 mg phenol per liter
same,Reduction in the phenol content,"[1]; 3 h of treatment, ~1 g dry weight bagasse in 15 ml T buffer",21%
same,Reduction in the phenol content,[1]; bagasse (~1 g dry weight equivalents) in 50 ml of T buffer,38-43%
same,Activity retained after incubation,"[2]; 37° C., 2½ days",nearly all of its original activity
same,Activity after pre-incubation,[2]; 1 h at 55° C.,fully active
same,Activity after pre-incubation,[2]; 5 h at 50° C.,fully active
same,Activity retained after incubation in solvent,[3]; 25% (v/v) DMSO or DMF,over 50%
same,Activity retained after incubation in solvent,"[3]; 24 h, 25% (v/v) methanol or ethanol",~75%
same,Activity retained after incubation in NaCl,[4],nearly all of its original activity
same,"Specific activity, DMP oxidation",[5],12.6±1.1 U·mg^−1
same,Oxidation of Fe^2+ (ferrous ammonium sulphate),[6],did not oxidize
same,Oxidation of guaiacol,Oxidation of guaiacol,did not oxidize
same,"pH optimum, ABTS oxidation","[7]; 45° C., FIG. 6C",6.0
same,Km,[7]; [9],700 µM
same,"kcat, ABTS",[7]; [9],10.0 s⁻¹
same,Km,[7]; [10],671 µM
same,"kcat, ABTS",[7]; [10],9.9 s⁻¹
same,"Specific activity, ABTS oxidation","[7]; US02-purified LccA, standard conditions",6.1±0.39 U·mg^−1
same,Km,Oxidation of bilirubin,236 µM
same,"kcat, bilirubin",Oxidation of bilirubin,29 s⁻¹
same,"Specific activity, bilirubin oxidation",Oxidation of bilirubin; standard conditions,25.5±1 U·mg^−1
same,"pH optimum, SGZ oxidization","[8]; 45° C., FIG. 6C",8.4
same,Activity relative to temperature optimum,[8]; 55° C.,67%
same,Activity relative to temperature optimum,[8]; 60° C.,48%
same,Activity relative to temperature optimum,[8]; 65° C.,35%
same,Activity relative to temperature optimum,[8]; 70° C.,15%
same,"kcat, SGZ",[8]; [9],19.4 s⁻¹
same,"kcat, SGZ",[8]; [10],21.7 s⁻¹
same,"Specific activity, SGZ oxidation","[8]; LccA purified from H. volcanii US02, fraction F2 (upper fraction), MonoQ 10/10","F2, 6.7 U · mg^−1"
same,Salt concentration for optimal activity,"[8]; NaCl or KCl in T buffer at 45° C., FIG. 6B",~200 mM
same,Activity in KCl higher than in NaCl,[8]; at ~200 mM salt,1.5 fold
same,"Specific activity, SGZ oxidation","[8]; improved purification protocol from H. volcanii US02, MonoQ 10/10 pH 8.4",51.5 U·mg^−1
same,"Specific activity, SGZ oxidation","[8]; purified from culture broth of Hfx. volcanii SB01 (C-terminal StrepII tag), final MonoQ 10/10 pH 8.4",1.3 U·mg^−1 and 1.34 U·mg^−1
same,Km,[8]; [9],67 µM
same,Km,[8]; [10],35 µM
same,Activity relative to temperature optimum,[8]; room temperature (25° C.),~75%
